The source of these data is the nanobody polyreactivity screen of Harvey et al. (2022).

A short description of the data set: yeast display, Sf9 membrane polyspecificity reagent, FACS + sequencing; frameworks hold sequencing errors. In short, it runs like this: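 Sorting gates, low and high (top ~1%), were placed on anti-HA fluorescence to track expression and on streptavidin fluorescence to track reagent binding. A clone's polyreactivity label is taken from the gate it came out of. The reagent was 10% biotinylated, detergent-solubilized Sf9 membrane, applied for 1 hour at 4 °C to galactose-induced yeast display cells.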
Take “QVQLVESGGGLVQAGGSLRLSCAASGFTFYKYVMGWYRQAPGKERELVAAISYSSGSTYYADSVKGRFTISRDNAKNTVYLQMNSLKPEDTAVYYCAARTYYAPQNMGYWGQGTQVTVSS”: the “polyreactivity (PSR sort gate)” value is “high polyreactivity”. For the sequence “QVQLVESGGGLVQAGGSLRLSCAASGGTFRLYAMGWYRQAPGKERELVAAITGSSGGTYYADSVKGRFTISRDNAKNTVYLQMNSLKPEDTAVYYCAARSSYWGQGTQVTVSS”, the “polyreactivity (PSR sort gate)” value is on record as “low polyreactivity”. The result for “QVQLVESGGGLVQAGGSLRLSCAASGRTFATYVMGWYRQAPGKERELVAAISLSGGSTYYADSVKGRFTISRDNAKNTVFLQMNSVKPEDTAVYYCAISWVTSSDYWGQGTQVTVSS” reads “low polyreactivity”. Take “QVQLEESGGGLVQAGASLRLSCAASGNIFPRNAMGWYRQAPGKERELVAAISASGDNTYYADSVKGRFTISRDNAKNTVYLQMNSLKPEDTEVYYCAAATFYESIQPYESVAYDYWGQGTQVTVSS”: the “polyreactivity (PSR sort gate)” value is “low polyreactivity”. With “QVQLVESGGGLVQAGGSLRLSCAASGIIFQRNDMGWYRQAPGKERELVANIRDGGITYADSVKGRFTISRDNAKNTVYLQMNSLKPEDTAVYYCARDDTSPGFGDQSSNAAYYYWGQGTQVTVSS” the entry was “low polyreactivity”; with “QVQLVESGGGLVQAGGSLRLSCAASGITFYRYAMGWYRQSPGKETQLVAAIRRAGSTYYADSVKGRFTISRDNAKNTVYLQMNSLKPEDTAVYYCAAPYRLEPLSTHGSWGQGTQVTVSS”, “high polyreactivity”; with “QVQLVESGGGLVQAGGSLRLSCAASGITLYANAMGWYREAPGKERELVAVISKGSGSTYYPDSVKGRFTISRDNAKNTVYLQMNSLKPEDTAVYYCAAGRKGSMYYWGQGTQVTVSS”, “high polyreactivity”. Take “QVQLVESGGGLVQAGGSLRLSCAASGRIFSFNGMGWYRPAPGKERELVAAITSSGGRTYYADSVKGRFTISRDNAKNTVYLQMNSLIPEDTAVYYCAAELAWDYYWGQGTQVTVSS”: the “polyreactivity (PSR sort gate)” value was “low polyreactivity”.

With “QVQLVESGGGLVQAGGSLRLSCAASGSTFQKNVMGWYRQAPGKERELVAAITSVGSTNYADSVKGRFTISRDNAKNTVYLQMNSLKPEDTAVYYCAKDQVPYYYVFGVYDYDYWGQGTQVTVSS”, the “polyreactivity (PSR sort gate)” value was “low polyreactivity”. Turning to “QVQLGESGGGLVQAGGSLRLSCAASGLIFVWNDMGWYRQAPGKEGELVADISDGSTYADSVKGRFTISRDNAKNTVYVQMNRLQPEHTAVYYCNKDNHDVELPVEFEYWGQGTQVTVSS”, the “polyreactivity (PSR sort gate)” value is reported as “high polyreactivity”. On to “QFQLVESGGGLVQAGGSLRLSCAASGFTFTVYAMGWYRQAPGKERELVAAITRGTSTYADSVKGRFTISRDNAKNTVYLQMNSLKPEDTAVYYCAARSSPWYTRYRSSELFDYWGQGTQVTVSS”, for which the “polyreactivity (PSR sort gate)” value is “high polyreactivity”. Take “QVQLVESGGGLVQAGGSLRLSCAASGRTFQVNTMGWYRQAPGKERELVAAISSAGRTYYADSVKGRFTISRDNAQNTVYLQMNSLKPEDTAVYYCAAAWSYSYWKARYGYWGQGTQVTVSS”: the “polyreactivity (PSR sort gate)” value is on record as “high polyreactivity”. The result for “QVQLVESGGGIVQAGGSLRLSCAASGSIFGPYAMGWYRQAPGKERELVAAITWTGGRTYYADSVKGRFTISRDNAKNTVYLQMNSLKPEDTAVYYCAADYSPSTWYLYYTLYYYWGQGTQVTVSS” reads “low polyreactivity”; that for “QVQLVESGGGLVQAGGRLRLSCAASGSIFGKYAMGWYRQAPGKERELVAAISKGGGRTSYADSVKGRFTISRDNAKNTVYLQMNSLKPEDTAVYYCNRYTQYRDRSDNHWGQGTQVTVSS”, “high polyreactivity”; that for “QDQLVESGGGLVQAGGSLRLSCSASGSIFRDKAMGWYRQAPGKERELVAAISIVGSTSYADSVKGRFTISRDNAKNTVYLQMNSLKPEDTAVYYCAADTFYSYYDMDYWGQGTQVTVSS”, “low polyreactivity”. For “QVQLVESGGGLVQAGGSLRLSCAASGLKFGVNPMGWYRPAPGKERELVAAISRDSDTNYADSVKGRFTISRDNAKNTVYLQMISLKPEDTAVYYFNAYSEWPVPSPPRSQSLDYWGQGTQVTVSS”, the “polyreactivity (PSR sort gate)” value is listed as “low polyreactivity”. As to “QVQLVESGGGLVQAGGSLRLSCAASGRTLYLYAMGWYRQEPGKERELVAGITWSGGSTYYADSVKGRFTISRDNAKNTVYLQMNSLKPEDTAVYYCAAVSYPDYDYWGQGTQVTVSS”, the “polyreactivity (PSR sort gate)” value is given as “low polyreactivity”.

Take “QVQLVESGGGLVQAGGSLRLSCAASGFIFPNKAMGWYRQAPGKERELVARISYGGGDTHYADSVKGRFTISRDNAKNTVYLQMNSLKPEDTAVYYCSYYYWGQGTQVTVSS”: the “polyreactivity (PSR sort gate)” value was “low polyreactivity”. With “QVQRVETAGRLVQARGSLRLSCAPSGIIFKRNAIGWYRQAPGKEREFVAAISSSGDTTYYADSVKGRFTISRDNAKNTVYLQMNSLKPEDTAVYYCAKPIRTSRARGMYYWGQGTEVTVSS” the entry was “high polyreactivity”; with “QVQLVESGGGLVQAGGSVRLSCAASGSIFGYYALGWYRQAPGTERELVAAISSGGSTKYADSVKGRFTISRDNAKNTVYLQMNSLKPEDTAVYYCATRIRSGSYPYPRYDYWGQGTQVTVSS”, “high polyreactivity”; with “QVQLVESGGGLVQAGGSLSLSCAASGSTFSPYAMGWYRQAPGKERELVAAITGSTGSTYYADSVKGRFTISRDNAKNTVYLQMNCLKPEDTAVYYCAAVSSNAGHVSRRRGYYWGQGTQVTVSS”, “high polyreactivity”.

On to “QVQLVESGGGLVQAGGSLRLSCAASGSTFNFNAMGWYRQAPGKERELVAAISSSGGSTYYADSVKGRFTISRDNAKNTVYLQMNSLKPEDTAVYYCATVLRKSPLYYYWGQGTQVTVSS”, for which the “polyreactivity (PSR sort gate)” value was “high polyreactivity”. In the case of “QIQLVESGGGLVQAGGSLRLSCAASGRIFFRNAMGWYRQAPGKERELVAGITWSGGSTYYADSVKGRFTISRDNAKNTVYLQMNSLKPEDTAVYYCNAVWRYRVLCDYWGQGTQVTVSS”, the “polyreactivity (PSR sort gate)” value is “high polyreactivity”.

As for “QVQLLESGGCLVQAGGSLRLSCAASGSTFWHNAMGWYRQAPGKERELVAAISSGSSTYYADSVKGRFTISRDNAKNTVYLQMNSLKPEDTAVYYCAKELYLGYRYWGYYWGQGTQVTVSS”, the “polyreactivity (PSR sort gate)” value is on record as “high polyreactivity”. The result for “QVQLVESGGGLVQAGGSLRLSCAASGSIFDFYAMGWDRQAPGKERELVAAISGSGGSTYYADSVKGRFTISRDNAKNTVYLQMNSLKPEDTAVYYCNAATYRTRHSNNGYWGQGTQVTVSS” reads “low polyreactivity”.

“QVQLVESGGGLVQARGSLRLSCAASGSTFSYYTMGWYREAPGKERELVAAITRRGDSTYADSVKGRFTISRDNAMNTVYLQLNSLKPEDTAVYYFAADDYVGVSGMDYWGQGTQVTVSS”: the “polyreactivity (PSR sort gate)” value is reported as “low polyreactivity”.

For “QVQLVESGGGLVQAGGSLRLSCAASGSTFWYYAMGWYRQAPGKERELVAAINGSGSRTYYADSVKGRFTISRDNAKNTVYLQMNSLKPEDTAVYYCAAGSLGRYYFKLDYWGQGTQVTVSS”, the “polyreactivity (PSR sort gate)” value is reported as “high polyreactivity”. On to “QVQRVESGGGLVQAGGSLRLSCAASGRIFGGYAMGWYRQAPGKERELVAGITIGGRTNYADSVKGRFTISRDNAKNTVYLQMNSLKPEDTAVYYCNTDLTGLDAEYDYWGQGTQLTVSS”, for which the “polyreactivity (PSR sort gate)” value was “low polyreactivity”. Take “QVQLVESGGGLVQAGGSLRLSCAASGFIFYKYGMGWYRQAPGKERELVAAINRRGGTTSYADSVKGRFTISRDNAKNTVYLQMNSLKPEDTAVYYCAASAPGGQDDYWGQGTQVTVSS”: the “polyreactivity (PSR sort gate)” value is “high polyreactivity”.

For the sequence “QVQLGESGAGLVQAGGSLRLSCAASGRTLRKYAMGLYTQAPGKERELVAAITTSGGSKYYADSVKGRFTISRDNAKNTVYLPMNSLKPEDTAVYYCAKCGYSGYHSSYDYWGQGTQVTVSS”, the “polyreactivity (PSR sort gate)” value was “high polyreactivity”. With “QVQLVESVGGLVQAGGSLRLSCAASGSTFVDYAMGWYRQAPGKERELVAAINSDGGGTYYADSVKGRFTISRDNAKNTVYLQMNSLKPEDTAVYYCNVEYVDYYAQRYGYDYWGQGTQVTLSS” the entry was “low polyreactivity”; with “QVQLVESGGGLVQAGGSIRLSCAASGRIFNHNSMGWYRQAPGKERELVAAITKSGGSTYYADSVKGRFTISRDNAKNTVYFQINSLITEDTAVYYCATRLWKIPGAMYYWGQGTQVTVSS”, “high polyreactivity”; with “QVQLVESGGGLVQAGGSLRLSCAASGITFSRNVMGWYRQAPGKERELVAAISRSGGRTYYADSVKGRLTISRDNAKNTVYLQMNSLKPEDTAVYYCNRDIGGTSVLDDYWGQGTQVTVSS”, “low polyreactivity”. The result for “QVQLVESGGGLVQAGVSLRISCAASGFTFSRNAMGWYRQAPGKESELVAAITWSGGRSYYADSVKGRFTISGDNAKNPVYLQMNSLKPEDTAVYYCAARKYPLRSAYDYWGPGTQVTVSS” reads “low polyreactivity”.

Consider “QVQLVESGGGLVQAGGSLRLTCAASGSTFWYYAMGWYRQAPGKERELVASITYSGGSTYYADSVKGRFTISRDNAKNTVYLQMNSLKPEDTAVYYCAKDGVSPSLRAYAAGYDYWGQGTQVTVSS”, for which the “polyreactivity (PSR sort gate)” value is given as “low polyreactivity”. Regarding “QVQLVESGGGLVQAGGSLRLSCAASGSIFRTNAIGWYRQAPGRERELVAAITGSGGSTYYADSVKGRFTISRDNAKNTVYLQMNSLKPEDTAVYYCAVVGYHRDFDYWGQGTQVTVSS”, the “polyreactivity (PSR sort gate)” value is on record as “low polyreactivity”. With “QVQLVESGGGLVQAGGSLRLSCAASGFTFRAYAMGWYRQAPGKERELVAAITYSGDRTYYADSVKGRFTISRDNAKNTVYLQMNSLKPEDTAVYYCAAYGAKVNRPGYYYWGQGTQVTVSS” the entry was “high polyreactivity”; with “QVQLVESGGGLVQAGGSLRLSCAASGRILRTYAMGWYIQAPGKERELVAAISRSGGSTYYADSVKGRFTLSRDNAKNTVAVQMTSLKPEDTAVYYCHKAYGGRGSKDEYWGQGTQVTVSS”, “high polyreactivity”; with “QVQLVESGGGLVQAGGSLRLSCAASGLTFDVYTMGWYRQAPGKERELVATISETYYADSVKGRFTISRDNAKNTVYLQMNSLKPEDTAVYYCAANGFKAQYRDIVYDYGYWGQGTQVTVSS”, “low polyreactivity”. On to “QVQLVESGGGLVQAGGSLRLSSAASGRTFVINAMGWYRQAPGKERELVAAITWGGGSTYYADSVKGRFTISRDNAKNTVYLQMNSLKQEDSAVYYCATSYSVQYGGSGYYWGQGTQVTVSS”, for which the “polyreactivity (PSR sort gate)” value was “low polyreactivity”. The result for “QVQLVESGGGLVQAGGSLRLSCAASGFIFFYYAMGWYRQAPGKERELVAVIDRSGGTTYYADSVKGRFTISRDNAKNTVYFQMNILKPEDTAVYYCNADDFTYPSGWGFIYDYWGQGTQVTVSS” reads “low polyreactivity”.
